Results: patent publication US20250188133A1, “CHIMERIC BACTERIOCINS AND METHOD FOR THE CONTROL OF PSEUDOMONAS” (priority 2022, published 2025)
Several values for one entry are separate records, joined by “and”; a condition that tells them apart may be missing. Equal entries are not always repeated.

Legend:
P. aeruginosa strains = test: agar disc-diffusion assay, panel of 25 strains; assay type: cell-based
Outline: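 Lawns came from overnight CAA cultures set to OD595=1.0, diluted 100× and swabbed onto 1.5% CAA agar. Paper discs (6 mm) carried 0.3–30 μg of chimeric pyocins. Inhibition zones were scored after overnight incubation at 37° C.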

P. aeruginosa PAO1 [1] = test: ex vivo porcine corneas as model for bacterial keratitis; assay type: cell-based; conditions: 5 μg applied 16-20 h after colonization, further 16-20 h incubation
Description: (§1) Preparation of porcine corneas. Porcine eyes were acquired from the nearest slaughterhouse. Enucleated eyes were stored at −70° C. Before the start of experiment, eyes were transferred to 4° C. for 1 hour, then to room temperature for 1-2 hours until the eyeballs were completely defrosted. Then eyeballs were individually placed in sterile plastic containers and submerged for 5 min in 2.5% Povidone-iodine (Betadine 100 mg/ml; EGIS Pharmaceuticals PLC), then twice washed with sterile PBS. The corneas were excised with sterile surgical blade No. #12. The excised corneas were stored in Minimum Essential Medium (MEM) supplemented with Non-Essential Amino Acids, L-Glutamine (2 mM), penicillin (200 U/ml)+spectinomycin (25 μg/ml) until further use at 4° C. up to two weeks.
(§2) Cornea infection and pyocin treatment. P. aeruginosa was grown overnight from frozen stock. Next morning, the culture was diluted 100 fold by fresh LB medium, and grown until OD595=˜0.6 (˜6 hours). Bacteria were collected by centrifugation and re-suspended in PBS. The dissected corneas were placed on agarose-gelatin (0.5% each) solid support in a 6-well culture plate containing 800 μL MEM with antibiotics (100 U/ml penicillin, 25 μg/ml spectinomycin), then three horizontal and 3 vertical scratches were made using a sterile 25 gauge needle. 3×10^4 CFU of P. aeruginosa ATCC 19660 strain or 0.4×10^4 CFU of PAO1 strain were applied to cornea and incubated for 16-20 hours in 37° C. CO2 incubator ([…]). 5 corneas were used for each experimental point. After incubation with P. aeruginosa, the corneas were visually inspected for opacity. The corneas which were clear and without signs of infection were considered as non-infected and discarded from further study. 5 μg of S5-PmnH (in 5 μl of PBS) or 5 μl of PBS were applied to infected corneas and incubated for additional 16-20 hours in 37° C. CO2 incubator.
(§3) Homogenization and CFU counting. Prior the homogenization the corneas were washed 3 times for 10 min in 50 ml sterile PBS with occasional agitation. Each cornea was chopped in 4 equal parts, trying to get rid of sclera. […]

P. aeruginosa ATCC 19660 = test: as above; assay type: cell-based; conditions: 5 μg applied 16-20 h after colonization, further 16-20 h incubation
Description: as §1, §2, §3

P. aeruginosa PAO1 [2] = test: murine keratitis model, invasive strain (C57BL/6 mice); assay type: in vivo
Description: The inbred mice of C57BL/6 strain of both sexes in equivalent numbers were used for the research. 2-6 months old, adult female and adult male mice were purchased from the Vilnius University vivarium of laboratory animals. The animals throughout the period of the experiment were given standard chow and drinking water ad libitum. Animals were housed in the individual plastic cages in a 12 h light/dark cycle at 21-23° C. All regulated procedures on living animals were approved by The Lithuanian Ethics Committee of Biomedical Research (Protocol no. B1-442) and were carried out in accordance with the European Union legislation of OECD (directive 2010/63/EU). The experiments were carried out in Biological research center of Lithuanian University of Health Sciences.
For P. aeruginosa infection and keratitis induction the mice were anesthetized by Ketamine and Xylazine 90:9 mg/kg intraperitoneal injection. The cornea of the left eye of each mouse was visualized under a stereoscopic microscope, and three 1 mm scratches were made using a sterile 25 gauge needle. A 10 μL aliquot containing 4×10^6 cells of P. aeruginosa ATCC 19660 (cytotoxic strain) or PAO1 ATCC 15692 (invasive strain) was applied to the corneal surface. Depending on the experiment, the treatment was started 30 min or 6 h post infection. 10 μl aliquot containing 0.14 mg of tobramycin or 20 μg of S5-PmnH (both containing 0.5% hydroxypropyl methylcellulose (HPMC)) or PBS containing 0.5% HPMC was applied as one drop of substance to the each eye. HPMC is used as artificial tears and was used in order to thicken the tears film and prolong the presence of the applied product on the surface of the cornea. The treatment was continued for five days twice daily. Mice were euthanized by cervical dislocation 1, 3, 5 days post infection, and the eyeballs were collected and homogenized for viable bacteria count.
The eyes were examined and photographed with a dissection microscope equipped with a digital camera at 1, 3 and 5 dpi to monitor the disease progression. At 1, 3 and 5 dpi disease severity was visually graded by using an established corneal damage scale: 0, the pupil was partially or fully covered by clear or slight opacity; +1, the anterior segment was partially or fully covered by slight opacity; +2, the pupil was partially or fully covered by dense opacity; +3, the entire anterior segment was covered by dense opacity; and +4, corneal perforation^40.
Histopathology experiments were carried out at Lithuanian University of Health Sciences, Department of Veterinary Pathobiology of Veterinary Academy. One randomly chosen mice of each study group was used for histopathology experiments. Enucleated eyes were preserved in 10% formaldehyde. Eyes were paraffin-embedded, cut into 3-μm-thick sections, deparaffinised, rehydrated and used for preparation of hematoxylin/eosin stained samples.

B1: S5-PmnH (protein)
chain: MSNDNEVPGSMVIVAQGPDDQYAYEVPPIDSAAVAGNMFGDLIQREIYLQKNIYYPVRSIFEQGTKEKKEINKKVSDQVDGLLKQITQGKREATRQERVDVMSAVLHKMESDLEGYKKTFTKGPFIDYEKQSSLSIYEAWVKIWEKNSWEERKKYPFQQLVRDELERAVAYYKQDSLSEAVKVLRQELNKQKALKEKEDLSQLERDYRTRKANLEMKVQSELDQAGSALPPLVSPTPEQWLERATRLVTQAIADKKQLQTTNNTLIKNSPTPLEKQKAIYNGELLVDEIASLQARLVKLNAETTRRRTEKELTPDEKAAYTDAVSFVSTANEQMLQKYGANLSKVAQDMQAEIAGKKVRSYAEAMATFEKISANPAMKLNALDTQAVVDALNALDKASFADNITRLGKAFGVVGKVVQAEAIREKTVSGFQTGDWKPLMLELEAMAVGTGAGILLATSMAFFFPVFASAAAGVVVVALMMAATAAYFDAAKVDEINNLILN
modifications: Chimeric S5-PmnH
- inhibition on lawns of S5 producer strains HP6 and HP7 (P. aeruginosa strains; clinical isolates HP6 and HP7, S5 gave turbid zones with 3 μg and 30 μg): significantly larger and clearer than those formed by S5
- activity spectrum / profile in agar disc diffusion assay (P. aeruginosa strains; panel of 25 P. aeruginosa strains, in words): broadened activity spectrum in comparison to pyocin S5
- inhibition zones on lawns of S5-producing strains (P. aeruginosa strains; six pyocin S5 and immunity gene-positive strains (PA14, PAO1, HP6, HP7, ATCC 19660, NCTC 13921)): formed inhibition zones on the lawns of all six S5-producing strains
- burden in treated corneas (average) (P. aeruginosa PAO1 [1]): 10 CFU per cornea
- reduction of burden vs untreated corneas (P. aeruginosa PAO1 [1]): 6.6 log10
- reduction of CFU number (P. aeruginosa ATCC 19660): 5.3 log10
- histological examination of infected treated eyes (P. aeruginosa PAO1 [2]; 1 dpi): signs of acute inflammation of cornea
- histological examination of infected treated eyes (P. aeruginosa PAO1 [2]; 3 dpi): signs of acute inflammation of cornea
- histological examination of infected treated eyes (P. aeruginosa PAO1 [2]; day 5): no aberrations
- average reduction of bacterial burden vs mock-treated (P. aeruginosa PAO1 [2]; treatment started 6 h post infection, 1 dpi): 1.04 log 10 CFU/cornea
- viable bacteria in cornea, individual mouse (P. aeruginosa PAO1 [2]; treatment started 6 h post infection, 3 dpi, third mouse): 2.38 log 10 CFU
- mice from which no viable bacteria were isolated (P. aeruginosa PAO1 [2]; treatment started 6 h post infection, 3 dpi, three mice per group): two
- viable bacteria in cornea, individual mice (P. aeruginosa PAO1 [2]; treatment started 6 h post infection, 5 dpi, mice with bacteria): 5.14 log 10 CFU/cornea and 3.34 log 10 CFU/cornea
- mice from which no bacteria were isolated (P. aeruginosa PAO1 [2]; treatment started 6 h post infection, 5 dpi, three mice per group): one
